# ± gives the uncertainty stated by the source.
# Experiment: protein stability index of a GFP-peptide fusion (yeast GPS) (PSI 1-4); higher = more stable; sorted into four equal gates, so the index is relative within each strain
# Method in brief: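 Tiled yeast protein peptides of 17 residues were each joined downstream of GFP, on plasmids that also express Cherry. The pooled library was maintained in yeast, and mid-log cultures in leucine-free medium were sorted into four equal gates on the GFP/Cherry ratio. Plasmids from every gate were amplified by PCR and sequenced on Illumina, with barcodes linking reads to strains. The protein stability index of a peptide is its gate-number-weighted read frequency summed over the gates.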
sequence,measurement,setting,value
NLTDEGYQWGEENKDIM [PRP8],protein stability index,doa10∆,2.81 ± 0.21
same,protein stability index,ubr1∆,3.2 ± 0.23
HDVGELFWKVKEEEGSF [PRE2],protein stability index,doa10∆,2.71 ± 0.081
same,protein stability index,pdr5∆,2.97 ± 0.08
same,protein stability index,san1∆,2.92 ± 0.064
same,protein stability index,ubr1∆,2.86 ± 0.07
QFTLYDRELNEVINQME [SMC3],protein stability index,doa10∆,3.01 ± 0.095
same,protein stability index,pdr5∆,3.09 ± 0.091
same,protein stability index,san1∆,2.94 ± 0.13
same,protein stability index,ubr1∆,3.08 ± 0.046
KLKQQSSTDIPSYTHVL [RRI1],protein stability index,doa10∆,2.29 ± 0.034
same,protein stability index,pdr5∆,2.48 ± 0.04
same,protein stability index,san1∆,2.52 ± 0.045
same,protein stability index,ubr1∆,2.49 ± 0.035
PSTRCKLKLLRMERIKD [RPT2],protein stability index,doa10∆,1.6 ± 0.045
same,protein stability index,pdr5∆,1.68 ± 0.056
same,protein stability index,san1∆,1.88 ± 0.089
same,protein stability index,ubr1∆,1.76 ± 0.064
SRKQKIAKTFTVDVSSP [RPL22A],protein stability index,doa10∆,2.81 ± 0.08
same,protein stability index,pdr5∆,3.1 ± 0.077
same,protein stability index,san1∆,2.95 ± 0.069
same,protein stability index,ubr1∆,2.68 ± 0.05
LPYPTYWSDKKADTDTL [SNF5],protein stability index,doa10∆,2.91 ± 0.11
same,protein stability index,pdr5∆,2.92 ± 0.11
same,protein stability index,san1∆,3.1 ± 0.07
same,protein stability index,ubr1∆,2.88 ± 0.059
VMPVPNVRSSVLQKVIE [SKP1],protein stability index,doa10∆,2.33 ± 0.05
same,protein stability index,pdr5∆,2.43 ± 0.052
same,protein stability index,san1∆,2.38 ± 0.052
same,protein stability index,ubr1∆,2.35 ± 0.045
DNVIVINHKINNKITQL [SIR3],protein stability index,doa10∆,2.08 ± 0.057
same,protein stability index,pdr5∆,2.13 ± 0.05
same,protein stability index,san1∆,2.08 ± 0.053
same,protein stability index,ubr1∆,2.2 ± 0.04
AQSHQRFNAKVSMVKRA [CDC53],protein stability index,doa10∆,1.34 ± 0.045
same,protein stability index,pdr5∆,2.09 ± 0.061
same,protein stability index,san1∆,1.56 ± 0.16
same,protein stability index,ubr1∆,1.64 ± 0.031
SNIPTLIEKLQGFSKDT [YDL116W/NUP84],protein stability index,doa10∆,3.22 ± 0.1
same,protein stability index,pdr5∆,3.23 ± 0.088
same,protein stability index,san1∆,3.01 ± 0.05
same,protein stability index,ubr1∆,3.17 ± 0.073
EITAKEVYDFTHAVGNN [FAS1],protein stability index,doa10∆,3 ± 0.065
same,protein stability index,pdr5∆,3.15 ± 0.051
same,protein stability index,san1∆,2.92 ± 0.046
same,protein stability index,ubr1∆,3.08 ± 0.039
KDNGMLIIDGQIIFGVV [RPO21],protein stability index,doa10∆,1.95 ± 0.12
same,protein stability index,pdr5∆,1.79 ± 0.076
same,protein stability index,san1∆,1.61 ± 0.21
same,protein stability index,ubr1∆,2.73 ± 0.12
KSSELELQKLVHDLNKY [SMC2],protein stability index,doa10∆,3.22 ± 0.088
same,protein stability index,pdr5∆,3.41 ± 0.079
same,protein stability index,san1∆,3.36 ± 0.045
same,protein stability index,ubr1∆,3.4 ± 0.05
GAHLGRFVIWTEAAFTK [RPL4A],protein stability index,doa10∆,2.87 ± 0.21
same,protein stability index,pdr5∆,3.04 ± 0.2
same,protein stability index,ubr1∆,2.54 ± 0.25
RLAKSTENEIPNLIEKM [BRR2],protein stability index,doa10∆,1.62 ± 0.08
same,protein stability index,pdr5∆,1.5 ± 0.052
same,protein stability index,san1∆,1.75 ± 0.087
same,protein stability index,ubr1∆,1.68 ± 0.058
SFLSKHALYLAPSGIRM [SSN2],protein stability index,doa10∆,2.12 ± 0.067
same,protein stability index,pdr5∆,1.56 ± 0.059
same,protein stability index,san1∆,1.46 ± 0.12
same,protein stability index,ubr1∆,2.19 ± 0.086
RAASIRARVKAFPKDDR [RPL3],protein stability index,doa10∆,1.22 ± 0.035
same,protein stability index,pdr5∆,1.46 ± 0.051
same,protein stability index,san1∆,1.27 ± 0.078
same,protein stability index,ubr1∆,1.5 ± 0.039
TSGEAAALGMGLCMLGT [RPN2],protein stability index,doa10∆,2.92 ± 0.19
same,protein stability index,pdr5∆,2.95 ± 0.21
same,protein stability index,san1∆,3.08 ± 0.12
same,protein stability index,ubr1∆,2.68 ± 0.1
LKKLEKEYELLTLQEDY [RPT3],protein stability index,doa10∆,2.37 ± 0.1
same,protein stability index,pdr5∆,2.31 ± 0.13
same,protein stability index,san1∆,2.6 ± 0.12
same,protein stability index,ubr1∆,2.32 ± 0.052
LEYEISKLKKETASFIP [YIL149C/MLP2],protein stability index,doa10∆,2.66 ± 0.08
same,protein stability index,pdr5∆,2.8 ± 0.085
same,protein stability index,san1∆,2.89 ± 0.06
same,protein stability index,ubr1∆,2.68 ± 0.059
ATKAINGCIFTLNPKTG [PRP8],protein stability index,doa10∆,2.79 ± 0.095
same,protein stability index,pdr5∆,2.73 ± 0.076
same,protein stability index,san1∆,2.71 ± 0.059
same,protein stability index,ubr1∆,2.88 ± 0.062
RYFWLDHNGVPFPQYPA [ITC1],protein stability index,doa10∆,2.22 ± 0.096
same,protein stability index,pdr5∆,2.81 ± 0.086
same,protein stability index,san1∆,3.08 ± 0.1
same,protein stability index,ubr1∆,2.47 ± 0.06
NEEAEARRLKNRAARDR [RPL19A],protein stability index,doa10∆,3.16 ± 0.13
same,protein stability index,pdr5∆,3.32 ± 0.087
same,protein stability index,san1∆,2.89 ± 0.19
same,protein stability index,ubr1∆,3.33 ± 0.062
KKFATVPTGGASSAAAG [RPP2B],protein stability index,doa10∆,3.17 ± 0.13
same,protein stability index,pdr5∆,3.21 ± 0.14
same,protein stability index,san1∆,2.89 ± 0.079
same,protein stability index,ubr1∆,3.06 ± 0.067
SQPFIKFLNFRPPNGIK [SSN2],protein stability index,doa10∆,2.65 ± 0.052
same,protein stability index,pdr5∆,2.31 ± 0.05
same,protein stability index,san1∆,2.23 ± 0.06
same,protein stability index,ubr1∆,2.4 ± 0.039
VQLPILKIIYTGLCSFD [YJL039C/NUP192],protein stability index,doa10∆,1.41 ± 0.055
same,protein stability index,pdr5∆,1.76 ± 0.043
same,protein stability index,san1∆,1.26 ± 0.12
same,protein stability index,ubr1∆,1.76 ± 0.058
PSRTRETATSERNASEV [GRR1],protein stability index,doa10∆,3.32 ± 0.15
same,protein stability index,pdr5∆,3 ± 0.12
same,protein stability index,san1∆,2.86 ± 0.091
same,protein stability index,ubr1∆,2.84 ± 0.14
QESSSTLSTHSTTTSVN [SIN4],protein stability index,doa10∆,3.04 ± 0.04
same,protein stability index,pdr5∆,3.12 ± 0.037
same,protein stability index,san1∆,3.12 ± 0.028
same,protein stability index,ubr1∆,3.132 ± 0.029
ELSDSDRQIINEKMQLL [SIR4],protein stability index,doa10∆,2.76 ± 0.049
same,protein stability index,pdr5∆,2.8 ± 0.055
same,protein stability index,san1∆,2.56 ± 0.06
same,protein stability index,ubr1∆,2.32 ± 0.047
TMVIQDEDWSVRIDKAL [ECM29],protein stability index,doa10∆,2.84 ± 0.19
same,protein stability index,pdr5∆,3.21 ± 0.18
FGKLAFPTRLGQGYRKV [YJL039C/NUP192],protein stability index,doa10∆,2.98 ± 0.18
same,protein stability index,pdr5∆,1.7 ± 0.1
same,protein stability index,san1∆,1.54 ± 0.18
same,protein stability index,ubr1∆,1.62 ± 0.077
WTDPNLKSSLADVLSIL [RPN1],protein stability index,doa10∆,2.94 ± 0.15
same,protein stability index,pdr5∆,2.98 ± 0.14
same,protein stability index,san1∆,2.94 ± 0.096
same,protein stability index,ubr1∆,2.65 ± 0.068
MVGLASGNDSMAGKVLI [BRR2],protein stability index,doa10∆,3.24 ± 0.1
same,protein stability index,pdr5∆,3.4 ± 0.092
same,protein stability index,san1∆,3.21 ± 0.091
same,protein stability index,ubr1∆,3.47 ± 0.058
DKKASMIISGSRDKTIK [ASC1],protein stability index,doa10∆,2.2 ± 0.17
same,protein stability index,pdr5∆,2.54 ± 0.092
same,protein stability index,san1∆,2.63 ± 0.096
same,protein stability index,ubr1∆,1.96 ± 0.079
SLDMNSMNKELIAIVSK [NUT1],protein stability index,doa10∆,1.56 ± 0.19
same,protein stability index,pdr5∆,1.44 ± 0.13
same,protein stability index,ubr1∆,1.19 ± 0.088
MSIGTGSFKVVKGTNIS [RPO31],protein stability index,pdr5∆,2.19 ± 0.15
SNMLGSNEDVMMTGAEQ [RPB3],protein stability index,doa10∆,3.47 ± 0.22
same,protein stability index,pdr5∆,3.35 ± 0.12
same,protein stability index,san1∆,3.26 ± 0.1
same,protein stability index,ubr1∆,3.08 ± 0.089
SNIGNNSINNNNIKNGT [YDL088C/ASM4],protein stability index,doa10∆,2.72 ± 0.047
same,protein stability index,pdr5∆,2.85 ± 0.057
same,protein stability index,san1∆,2.85 ± 0.047
same,protein stability index,ubr1∆,2.65 ± 0.042
AGAAGAAAGGDAAEEEK [RPP2B],protein stability index,ubr1∆,1.27 ± 0.27
DGSAIEDDDIRSRMLPT [SNF5],protein stability index,doa10∆,3.19 ± 0.086
same,protein stability index,pdr5∆,3.03 ± 0.11
same,protein stability index,san1∆,3.46 ± 0.12
same,protein stability index,ubr1∆,3.34 ± 0.057
EKIAAGYMQKPVYATIG [PRP28],protein stability index,doa10∆,2.87 ± 0.19
same,protein stability index,pdr5∆,2.67 ± 0.076
same,protein stability index,san1∆,2.67 ± 0.15
same,protein stability index,ubr1∆,2.67 ± 0.094
ATSSTNANAGLFNKPPS [YOR098C/NUP1],protein stability index,doa10∆,2.86 ± 0.053
same,protein stability index,pdr5∆,3.06 ± 0.073
same,protein stability index,san1∆,3.05 ± 0.079
same,protein stability index,ubr1∆,3.3 ± 0.058
ESFTEELSNELSRLSTA [MED1],protein stability index,doa10∆,3.25 ± 0.066
same,protein stability index,pdr5∆,3.12 ± 0.066
same,protein stability index,san1∆,3.05 ± 0.053
same,protein stability index,ubr1∆,3.21 ± 0.034
HLILDKLNQKYDIVKFL [GRR1],protein stability index,doa10∆,1.83 ± 0.041
same,protein stability index,pdr5∆,1.66 ± 0.035
same,protein stability index,san1∆,1.3 ± 0.1
same,protein stability index,ubr1∆,1.81 ± 0.03
SNEAAKPSFSFPGKPVD [YOR098C/NUP1],protein stability index,doa10∆,2.84 ± 0.048
same,protein stability index,pdr5∆,2.96 ± 0.048
same,protein stability index,san1∆,3.01 ± 0.038
same,protein stability index,ubr1∆,2.95 ± 0.047
SDSETNHKSKDNNNGDD [SKP1],protein stability index,doa10∆,2.9 ± 0.054
same,protein stability index,pdr5∆,3.17 ± 0.051
same,protein stability index,san1∆,3.11 ± 0.04
same,protein stability index,ubr1∆,3.15 ± 0.045
RRTYNTLEDKFLLLAVN [ISW2],protein stability index,doa10∆,1.34 ± 0.084
same,protein stability index,pdr5∆,1.67 ± 0.076
same,protein stability index,san1∆,1.18 ± 0.19
same,protein stability index,ubr1∆,1.28 ± 0.071
IMDNFLERTAIELKTDW [RPN1],protein stability index,doa10∆,3 ± 0.2
same,protein stability index,pdr5∆,2.99 ± 0.18
same,protein stability index,san1∆,3.07 ± 0.12
same,protein stability index,ubr1∆,2.56 ± 0.15
YLSGAIPNQEVLQYSDW [YDL116W/NUP84],protein stability index,doa10∆,2.37 ± 0.12
same,protein stability index,pdr5∆,1.83 ± 0.074
same,protein stability index,san1∆,2.29 ± 0.051
same,protein stability index,ubr1∆,2 ± 0.071
LEATWNFIEPGINQILG [CDC53],protein stability index,doa10∆,2.95 ± 0.29
same,protein stability index,pdr5∆,2.75 ± 0.27
same,protein stability index,san1∆,3.38 ± 0.1
same,protein stability index,ubr1∆,3.08 ± 0.12
GIFGMDFYVVMNRPGAR [RPL11A],protein stability index,doa10∆,1.8 ± 0.057
same,protein stability index,pdr5∆,1.71 ± 0.064
same,protein stability index,san1∆,2.49 ± 0.058
same,protein stability index,ubr1∆,2.24 ± 0.047
GAASNRTKFVRSLVREI [RPL36A],protein stability index,doa10∆,3.22 ± 0.27
same,protein stability index,pdr5∆,2.59 ± 0.25
same,protein stability index,san1∆,3.02 ± 0.13
same,protein stability index,ubr1∆,3.25 ± 0.12
